Experimental data: paper PMC7229837, “Molecular architecture of the DNA-binding sites of the P-loop ATPases MipZ and ParA from Caulobacter crescentus”
Where a chain is given by its changes, count along the chain named.

Experiments:
Details in all cases: protein: recombinant; tags: C-terminal His6 (pET21a); chain copies: 2; label: Cy3 (5') on strand 1; blunt
MipZ WT = target: T1, MipZ WT (Caulobacter crescentus, UniProt Q9A6C9 1-278); test: MST; EMSA: 10 mM HEPES/NaOH pH 7.2, 150 mM NaCl, 10 mM MgCl2, 0.05% Tween 20, 0.46 mM ATPgS, room temp; BLI: 50 mM HEPES/NaOH pH 7.2, 50 mM NaCl, 5 mM MgCl2, 0.1 mM
T1 sequence: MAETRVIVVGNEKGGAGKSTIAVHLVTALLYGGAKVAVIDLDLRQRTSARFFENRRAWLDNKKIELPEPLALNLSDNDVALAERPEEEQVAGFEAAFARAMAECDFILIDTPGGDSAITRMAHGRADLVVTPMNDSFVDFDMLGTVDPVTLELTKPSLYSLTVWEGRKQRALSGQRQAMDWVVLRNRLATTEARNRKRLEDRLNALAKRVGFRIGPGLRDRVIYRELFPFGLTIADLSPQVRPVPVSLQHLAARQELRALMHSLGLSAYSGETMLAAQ

MipZ L248A = target: T2, MipZ L248A (Caulobacter crescentus, UniProt Q9A6C9 1-278, L248A); test: as above
T2 sequence: T1 sequence with L248A

MipZ D42A = target: T3, MipZ D42A (Caulobacter crescentus, UniProt Q9A6C9 1-278, D42A); test: as above
T3 sequence: T1 sequence with D42A

MipZ L237A = target: T4, MipZ L237A (Caulobacter crescentus, UniProt Q9A6C9 1-278, L237A); test: MST; low-affinity group, KD >> 10 uM; EMSA: 10 mM HEPES/NaOH pH 7.2, 150 mM NaCl, 10 mM MgCl2, 0.05% Tween 20, 0.46 mM ATPgS, room temp; BLI: 50 mM HEPES/NaOH pH 7.2, 50 mM NaCl, 5 mM MgCl2, 0.1 mM
T4 sequence: T1 sequence with L237A

MipZ K197A = target: T5, MipZ K197A (Caulobacter crescentus, UniProt Q9A6C9 1-278, K197A); test: as above
T5 sequence: T1 sequence with K197A

MipZ R196A = target: T6, MipZ R196A (Caulobacter crescentus, UniProt Q9A6C9 1-278, R196A); test: as above
T6 sequence: T1 sequence with R196A

B1: rand-Cy3/rand-rev 26 bp (dsDNA)
DNA 1: GAGGCAGACTAGATCTTCTAGTTCGG
DNA 2: CCGAACTAGAAGATCTAGTCTGCCTC
B1 gave a Kd (MipZ WT) of less than 10 µM, a Kd (MipZ L248A) of less than 10 µM and a Kd (MipZ D42A) of less than 10 µM. The Kd (MipZ L237A) was greater than 10 µM, the Kd (MipZ K197A) was greater than 10 µM and the Kd (MipZ R196A) was greater than 10 µM.
